# In patent US12043670B2, “Anti-BCMA antibody-drug conjugates and methods of use” (Eisai R&D Management Co., Ltd., priority 2020, dated 2024):
# Assay: ThermoFluor thermostability (Tm)
# Type: physicochemical
# Details: Light chain screening Round 2; Fab, paired with heavy chain AB200_R1_VH26
row,Molecule,Tm [°C]
1,AB200-R1H26-R2Vk18 (antibody) heavy: QVQLVQSGAEVKKPGSSVKVSCKASGGSFSNYWMHWVRQAPGQGLEWMGATYRIHSDTFYNQKFKGRVTITADKSTSTAYMELSSLRSEDTAVYYCARGAIYHGYDVLDNWGQGTLVTVSSASTKGPSVFPLAPSSKSTSGGTAALGCLVKDYFPEPVTVSWNSGALTSGVHTFPAVLQSSGLYSLSSVVTVPSSSLGTQTYICNVNHKPSNTKVDKKVEPKSC light: DIQMTQSPSSLSASVGDRVTITCRASQSISSYINWYQQKPGKAPKLLIYAASSLQSGVPSRFSGSGSGTDFTLTISSLQPEDFATYYCQQFRKIPWTFGQGTKLEIKRTVAAPSVFIFPPSDEQLKSGTASVVCLLNNFYPREAKVQWKVDNALQSGNSQESVTEQDSKDSTYSLSSTLTLSKADYEKHKVYACEVTHQGLSSPVTKSFNRGEC,82.729
2,AB200-R1H26-R2Vk28 (antibody) heavy: QVQLVQSGAEVKKPGSSVKVSCKASGGSFSNYWMHWVRQAPGQGLEWMGATYRIHSDTFYNQKFKGRVTITADKSTSTAYMELSSLRSEDTAVYYCARGAIYHGYDVLDNWGQGTLVTVSSASTKGPSVFPLAPSSKSTSGGTAALGCLVKDYFPEPVTVSWNSGALTSGVHTFPAVLQSSGLYSLSSVVTVPSSSLGTQTYICNVNHKPSNTKVDKKVEPKSC light: DIQMTQSPSSLSASVGDRVTITCRASQSISSYLNWYQQKPGKAPKLLIYATSNIQSGVPSRFSGSGSGTDFTLTISSLQPEDFATYYCQQFRKIPWTFGQGTKLEIKRTVAAPSVFIFPPSDEQLKSGTASVVCLLNNFYPREAKVQWKVDNALQSGNSQESVTEQDSKDSTYSLSSTLTLSKADYEKHKVYACEVTHQGLSSPVTKSFNRGEC,82.966
3,AB200-R1H26-R2Vk27 (antibody) heavy: QVQLVQSGAEVKKPGSSVKVSCKASGGSFSNYWMHWVRQAPGQGLEWMGATYRIHSDTFYNQKFKGRVTITADKSTSTAYMELSSLRSEDTAVYYCARGAIYHGYDVLDNWGQGTLVTVSSASTKGPSVFPLAPSSKSTSGGTAALGCLVKDYFPEPVTVSWNSGALTSGVHTFPAVLQSSGLYSLSSVVTVPSSSLGTQTYICNVNHKPSNTKVDKKVEPKSC light: DIQMTQSPSSLSASVGDRVTITCRASQSISSYLNWYQQKPGKAPKLLIYATSNIQSGVPSRFSGSGSGTDFTLTISSLQPEDFATYYCQQYRKIPWSFGQGTKLEIKRTVAAPSVFIFPPSDEQLKSGTASVVCLLNNFYPREAKVQWKVDNALQSGNSQESVTEQDSKDSTYSLSSTLTLSKADYEKHKVYACEVTHQGLSSPVTKSFNRGEC,79.104
4,AB200-R1H26-R2Vk41 (antibody) heavy: QVQLVQSGAEVKKPGSSVKVSCKASGGSFSNYWMHWVRQAPGQGLEWMGATYRIHSDTFYNQKFKGRVTITADKSTSTAYMELSSLRSEDTAVYYCARGAIYHGYDVLDNWGQGTLVTVSSASTKGPSVFPLAPSSKSTSGGTAALGCLVKDYFPEPVTVSWNSGALTSGVHTFPAVLQSSGLYSLSSVVTVPSSSLGTQTYICNVNHKPSNTKVDKKVEPKSC light: DIQMTQSPSSLSASVGDRVTITCRASQSISSYINWYQQKPGKAPKLLIYATSNIQSGVPSRFSGSGSGTDFTLTISSLQPEDFATYYCQQFRRLPWTFGQGTKLEIKRTVAAPSVFIFPPSDEQLKSGTASVVCLLNNFYPREAKVQWKVDNALQSGNSQESVTEQDSKDSTYSLSSTLTLSKADYEKHKVYACEVTHQGLSSPVTKSFNRGEC,83.256
5,AB200-R1H26-R2Vk37 (antibody) heavy: QVQLVQSGAEVKKPGSSVKVSCKASGGSFSNYWMHWVRQAPGQGLEWMGATYRIHSDTFYNQKFKGRVTITADKSTSTAYMELSSLRSEDTAVYYCARGAIYHGYDVLDNWGQGTLVTVSSASTKGPSVFPLAPSSKSTSGGTAALGCLVKDYFPEPVTVSWNSGALTSGVHTFPAVLQSSGLYSLSSVVTVPSSSLGTQTYICNVNHKPSNTKVDKKVEPKSC light: DIQMTQSPSSLSASVGDRVTITCRASQSISSYINWYQQKPGKAPKLLIYATSNLQSGVPSRFSGSGSGTDFTLTISSLQPEDFATYYCQQYRKIPWSFGQGTKLEIKRTVAAPSVFIFPPSDEQLKSGTASVVCLLNNFYPREAKVQWKVDNALQSGNSQESVTEQDSKDSTYSLSSTLTLSKADYEKHKVYACEVTHQGLSSPVTKSFNRGEC,79.374
6,AB200-R1H26-R2Vk40 (antibody) heavy: QVQLVQSGAEVKKPGSSVKVSCKASGGSFSNYWMHWVRQAPGQGLEWMGATYRIHSDTFYNQKFKGRVTITADKSTSTAYMELSSLRSEDTAVYYCARGAIYHGYDVLDNWGQGTLVTVSSASTKGPSVFPLAPSSKSTSGGTAALGCLVKDYFPEPVTVSWNSGALTSGVHTFPAVLQSSGLYSLSSVVTVPSSSLGTQTYICNVNHKPSNTKVDKKVEPKSC light: DIQMTQSPSSLSASVGDRVTITCRASQSISSYINWYQQKPGKAPKLLIYATSNIQSGVPSRFSGSGSGTDFTLTISSLQPEDFATYYCQQYRRIPWTFGQGTKLEIKRTVAAPSVFIFPPSDEQLKSGTASVVCLLNNFYPREAKVQWKVDNALQSGNSQESVTEQDSKDSTYSLSSTLTLSKADYEKHKVYACEVTHQGLSSPVTKSFNRGEC,79.308
7,AB200-R1H26-R2Vk2 (antibody) heavy: QVQLVQSGAEVKKPGSSVKVSCKASGGSFSNYWMHWVRQAPGQGLEWMGATYRIHSDTFYNQKFKGRVTITADKSTSTAYMELSSLRSEDTAVYYCARGAIYHGYDVLDNWGQGTLVTVSSASTKGPSVFPLAPSSKSTSGGTAALGCLVKDYFPEPVTVSWNSGALTSGVHTFPAVLQSSGLYSLSSVVTVPSSSLGTQTYICNVNHKPSNTKVDKKVEPKSC light: DIQMTQSPSSLSASVGDRVTITCRASQSISSYINWYQQKPGKAPKLLIYAASSLQSGVPSRFSGSGSGTDFTLTISSLQPEDFATYYCQQFRKLPWSFGQGTKLEIKRTVAAPSVFIFPPSDEQLKSGTASVVCLLNNFYPREAKVQWKVDNALQSGNSQESVTEQDSKDSTYSLSSTLTLSKADYEKHKVYACEVTHQGLSSPVTKSFNRGEC,82.119
8,AB200-R1H26-R2Vk38 (antibody) heavy: QVQLVQSGAEVKKPGSSVKVSCKASGGSFSNYWMHWVRQAPGQGLEWMGATYRIHSDTFYNQKFKGRVTITADKSTSTAYMELSSLRSEDTAVYYCARGAIYHGYDVLDNWGQGTLVTVSSASTKGPSVFPLAPSSKSTSGGTAALGCLVKDYFPEPVTVSWNSGALTSGVHTFPAVLQSSGLYSLSSVVTVPSSSLGTQTYICNVNHKPSNTKVDKKVEPKSC light: DIQMTQSPSSLSASVGDRVTITCRASQSISSYINWYQQKPGKAPKLLIYATSNLQSGVPSRFSGSGSGTDFTLTISSLQPEDFATYYCQQFRKIPWTFGQGTKLEIKRTVAAPSVFIFPPSDEQLKSGTASVVCLLNNFYPREAKVQWKVDNALQSGNSQESVTEQDSKDSTYSLSSTLTLSKADYEKHKVYACEVTHQGLSSPVTKSFNRGEC,83.791
9,AB200-R1H26-R2Vk39 (antibody) heavy: QVQLVQSGAEVKKPGSSVKVSCKASGGSFSNYWMHWVRQAPGQGLEWMGATYRIHSDTFYNQKFKGRVTITADKSTSTAYMELSSLRSEDTAVYYCARGAIYHGYDVLDNWGQGTLVTVSSASTKGPSVFPLAPSSKSTSGGTAALGCLVKDYFPEPVTVSWNSGALTSGVHTFPAVLQSSGLYSLSSVVTVPSSSLGTQTYICNVNHKPSNTKVDKKVEPKSC light: DIQMTQSPSSLSASVGDRVTITCRASQSISSYINWYQQKPGKAPKLLIYATSNIQSGVPSRFSGSGSGTDFTLTISSLQPEDFATYYCQQYRRLPWSFGQGTKLEIKRTVAAPSVFIFPPSDEQLKSGTASVVCLLNNFYPREAKVQWKVDNALQSGNSQESVTEQDSKDSTYSLSSTLTLSKADYEKHKVYACEVTHQGLSSPVTKSFNRGEC,78.907
